Results taken from patent US20210380714A1.

Key:
[1] = molecular target: recombinant human soluble MSLN (rHuMSLN sol.) (human) (UniProt Q13421); test: Biacore, soluble human MSLN
[2] = molecular target: native human MSLN expressed on the cell surface (N87 / NCI-N87 tumor cells) (human) (UniProt Q13421); test: KinExA, native hu MSLN on cells
[3] = molecular target: recombinant human soluble MSLN (rHuMSLN sol.) (human) (UniProt Q13421); test: published value quoted in the Biacore column; the sheet does not name its source

Sequence of recombinant human soluble MSLN (rHuMSLN sol.) (human) (Q13421 296-606 limits assumed): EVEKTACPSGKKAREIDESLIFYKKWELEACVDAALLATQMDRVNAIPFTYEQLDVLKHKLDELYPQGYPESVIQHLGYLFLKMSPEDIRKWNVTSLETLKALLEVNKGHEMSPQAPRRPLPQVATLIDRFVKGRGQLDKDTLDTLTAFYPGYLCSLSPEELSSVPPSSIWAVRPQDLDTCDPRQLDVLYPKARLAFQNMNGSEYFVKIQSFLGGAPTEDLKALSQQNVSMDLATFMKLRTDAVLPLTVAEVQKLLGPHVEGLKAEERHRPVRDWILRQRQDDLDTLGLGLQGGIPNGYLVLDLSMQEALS
Sequence of native human MSLN expressed on the cell surface (N87 / NCI-N87 tumor cells) (human) (Q13421 296-606 limits assumed): as above

- Kd [1]: 0.16 nM
- Kd [2]: 0.0022 nM
- Kd [3]: 1.5 nM
Substance: MORAb-009 (antibody)
